Experimental data as given in US20150322128A1 (Sanofi, published 2015).
Numbering of substitutions follows the chain as printed. Like-named read-outs stand apart in the source and are kept apart here. Numbered stars: 1 amine (or outer) side, 2 acyl side, 3 side chain; on linkers, the order of the positions; unused ones are H or OH. Square brackets hold non-standard residues; d marks the D form. Side chains are listed from the residue outwards. Ends that are not written are not given here. * marks the point of attachment. γGlu = O=C(O)[C@H](CCC(=O)[*:2])N[*:1]; Palmitoyl = CCCCCCCCCCCCCCCC(=O)*; Aib = CC(C)(N)C(=O)O

T1: human GIP receptor (human, UniProt P48546 22-466)
T1 sequence (looked up): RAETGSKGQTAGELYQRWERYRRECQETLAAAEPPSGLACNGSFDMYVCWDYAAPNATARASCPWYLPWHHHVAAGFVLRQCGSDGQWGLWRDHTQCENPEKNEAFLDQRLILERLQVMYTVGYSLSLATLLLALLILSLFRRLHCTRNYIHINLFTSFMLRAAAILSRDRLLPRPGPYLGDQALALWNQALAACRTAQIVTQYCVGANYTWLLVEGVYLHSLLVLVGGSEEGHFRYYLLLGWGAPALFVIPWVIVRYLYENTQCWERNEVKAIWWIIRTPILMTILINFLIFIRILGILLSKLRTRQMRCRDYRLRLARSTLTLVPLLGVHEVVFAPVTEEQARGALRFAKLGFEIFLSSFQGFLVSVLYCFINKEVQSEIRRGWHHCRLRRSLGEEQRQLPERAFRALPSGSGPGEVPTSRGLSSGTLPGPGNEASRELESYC

B1: SEQ ID NO: 31 (peptide)
peptide: H[dS]QGTFTSDLSKQK([γGlu-γGlu-Palmitoyl])EEEAARLFIEWLKAGGPSSGAPPPS-NH2
modifications: N-terminus assumed
SMILES: CCCCCCCCCCCCCCCC(=O)N[C@@H](CCC(=O)N[C@@H](CCC(=O)NCCCC[C@H](NC(=O)[C@H](CCC(N)=O)NC(=O)[C@H](CCCCN)NC(=O)[C@H](CO)NC(=O)[C@H](CC(C)C)NC(=O)[C@H](CC(=O)O)NC(=O)[C@H](CO)NC(=O)[C@@H](NC(=O)[C@H](Cc1ccccc1)NC(=O)[C@@H](NC(=O)CNC(=O)[C@H](CCC(N)=O)NC(=O)[C@@H](CO)NC(=O)[C@@H](N)Cc1c[nH]cn1)[C@@H](C)O)[C@@H](C)O)C(=O)N[C@@H](CCC(=O)O)C(=O)N[C@@H](CCC(=O)O)C(=O)N[C@@H](CCC(=O)O)C(=O)N[C@@H](C)C(=O)N[C@@H](C)C(=O)N[C@@H](CCCNC(=N)N)C(=O)N[C@@H](CC(C)C)C(=O)N[C@@H](Cc1ccccc1)C(=O)N[C@H](C(=O)N[C@@H](CCC(=O)O)C(=O)N[C@@H](Cc1c[nH]c2ccccc12)C(=O)N[C@@H](CC(C)C)C(=O)N[C@@H](CCCCN)C(=O)N[C@@H](C)C(=O)NCC(=O)NCC(=O)N1CCC[C@H]1C(=O)N[C@@H](CO)C(=O)N[C@@H](CO)C(=O)NCC(=O)N[C@@H](C)C(=O)N1CCC[C@H]1C(=O)N1CCC[C@H]1C(=O)N1CCC[C@H]1C(=O)N[C@@H](CO)C(N)=O)[C@@H](C)CC)C(=O)O)C(=O)O
B2: SEQ ID NO: 27 (peptide)
peptide: H[dS]HGTFTSDLSKQK([γGlu-γGlu-Palmitoyl])EEEAARLFIEWL[Aib]K[dA]GPSSGAPPPS-NH2
modifications: N-terminus assumed
SMILES: CCCCCCCCCCCCCCCC(=O)N[C@@H](CCC(=O)N[C@@H](CCC(=O)NCCCC[C@H](NC(=O)[C@H](CCC(N)=O)NC(=O)[C@H](CCCCN)NC(=O)[C@H](CO)NC(=O)[C@H](CC(C)C)NC(=O)[C@H](CC(=O)O)NC(=O)[C@H](CO)NC(=O)[C@@H](NC(=O)[C@H](Cc1ccccc1)NC(=O)[C@@H](NC(=O)CNC(=O)[C@H](Cc1c[nH]cn1)NC(=O)[C@@H](CO)NC(=O)[C@@H](N)Cc1c[nH]cn1)[C@@H](C)O)[C@@H](C)O)C(=O)N[C@@H](CCC(=O)O)C(=O)N[C@@H](CCC(=O)O)C(=O)N[C@@H](CCC(=O)O)C(=O)N[C@@H](C)C(=O)N[C@@H](C)C(=O)N[C@@H](CCCNC(=N)N)C(=O)N[C@@H](CC(C)C)C(=O)N[C@@H](Cc1ccccc1)C(=O)N[C@H](C(=O)N[C@@H](CCC(=O)O)C(=O)N[C@@H](Cc1c[nH]c2ccccc12)C(=O)N[C@@H](CC(C)C)C(=O)NC(C)(C)C(=O)N[C@@H](CCCCN)C(=O)N[C@H](C)C(=O)NCC(=O)N1CCC[C@H]1C(=O)N[C@@H](CO)C(=O)N[C@@H](CO)C(=O)NCC(=O)N[C@@H](C)C(=O)N1CCC[C@H]1C(=O)N1CCC[C@H]1C(=O)N1CCC[C@H]1C(=O)N[C@@H](CO)C(N)=O)[C@@H](C)CC)C(=O)O)C(=O)O
B3: SEQ ID NO: 29 (peptide)
peptide: HXHGTFTSDLSKQKDEEAARLFIEWLKAGGPSSGAPPPS
modifications: D-Ser at 2; Lys 14 side chain K(γE-γE-x53) = (S)-4-Carboxy-4-((S)-4-carboxy-4-hexadecanoylamino-butyrylamino)-butyryl-; C-terminal amide
B4: SEQ ID NO: 30 (peptide)
peptide: B3 peptide with D15E
modifications: D-Ser at 2; Lys 14 side chain K(γE-γE-x53) = (S)-4-Carboxy-4-((S)-4-carboxy-4-hexadecanoylamino-butyrylamino)-butyryl-; C-terminal amide

Experiments:
Assay in all cases: cell-based or functional assay
[1] = target: T1, human GIP receptor
[2] = target: T2, human glucagon receptor (human, UniProt P47871 26-477)
[3] = target: T3, human GLP-1 receptor (human, UniProt P43220 24-463)
[4] = target: T1, human GIP receptor; remark: listed apart in the source
[5] = target: T2, human glucagon receptor; remark: listed apart in the source
[6] = target: T3, human GLP-1 receptor; remark: listed apart in the source

T2 sequence (P47871 26-477): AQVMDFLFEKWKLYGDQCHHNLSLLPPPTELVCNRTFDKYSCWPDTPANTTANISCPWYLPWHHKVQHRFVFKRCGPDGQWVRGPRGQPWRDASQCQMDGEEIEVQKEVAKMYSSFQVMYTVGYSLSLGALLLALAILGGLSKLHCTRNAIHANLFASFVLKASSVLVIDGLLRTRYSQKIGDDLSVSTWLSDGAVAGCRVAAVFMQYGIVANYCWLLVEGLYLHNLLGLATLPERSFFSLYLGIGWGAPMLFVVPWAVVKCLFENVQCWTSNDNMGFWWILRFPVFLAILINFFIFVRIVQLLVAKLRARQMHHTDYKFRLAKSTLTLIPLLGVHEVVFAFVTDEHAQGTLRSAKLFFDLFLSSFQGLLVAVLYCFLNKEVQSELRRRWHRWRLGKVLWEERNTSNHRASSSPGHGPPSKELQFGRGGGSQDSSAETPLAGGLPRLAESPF

Row | Binder | EC50 hGIP-1 [1] | EC50 hGlucagon-R [2] | EC50 hGLP-1R [3] | EC50 hGIP-R [4] | EC50 hGlucagon-R [5] | EC50 hGLP-1R [6]
1 | H-HSQGTFTSDLSKQK([γGlu-γGlu-Palmitoyl])DEEAARLFIEWLKAGGPSSGAPPPS-NH2 [SEQ ID NO: 33] | 70.8 pM | 1.4 pM | 1 pM | – | – | –
2 | B1 | 345 pM | 7.4 pM | 1.3 pM | – | – | –
3 | B2 | – | – | – | 3.22 nM | 55.4 pM | 2.1 pM
4 | B3 | 112 pM | 2.6 pM | 0.9 pM | – | – | –
5 | B4 | 77.8 pM | 5.1 pM | 0.8 pM | – | – | –
